# From patent US12350286B2, “Polypeptides directed against viral infection and uses thereof” (QUADRUMIX BIOTECHNOLOGY INC., priority 2020, dated 2025)
# Entries after “also recorded” stand apart in the source; their conditions may differ. Like-named read-outs stand apart in the source and are kept apart here.
# Experiments:
# [1] = tested on: HBV; test: supernatant HBV DNA in HepAD38 cells; assay type: cell-based; settings: 6-day time course
# Source text: Having regard to FIG. 12, TDF targets the HBV reverse transcriptase, thus only affecting the number virions secreted in the supernatant. In contrast, the presently designed polypeptides should affect cccDNA stability, which can be indirectly measured through levels. As expected, a significant decrease in supernatant HBV (2 log) was caused by TDF treatment. A significant, albeit lower, decrease in HBV supernatant DNA was also observed from sdAb10-2 treatment (0.5 log).
# [2] = tested on: HBeAg; settings: HepAD38 cells, 6-day time course
# Procedure: In this Example 3, the effects of the presently designed polypeptides on HBV replication were analyzed, HepAD38 cells that expresses HBV under the control of a tetracycline promoter were used. HepAD38 cells were plated in the presence of TDF or candidate therapeutic (sdAb10-2) without tetracycline for three days to induce HBV production and to establish a cccDNA reservoir in the nuclei of infected cells. After three days, drugs/sdAbs were replenished and the media was replenished with tetracycline to suppress HBV transcripts being produced from the plasmid, so that only HBV markers be produced from the established cccDNA reservoir. Varying drug concentrations of—TDF and sdAb10-2 were used to determine drug toxicity (TD50) and efficacy during the 6-day time course.
# The ability of the presently designed polypeptides to reduce HBeAg levels was also analyzed.
# [3] = tested on: wild-type G-quadruplex of HBV cccDNA pre-core promoter region; test: phage ELISA assay (absorbance at 450 nm), wild-type vs mutant G-quadruplex; assay type: binding; settings: for affinity for wild-type G-quadruplex structure of HBV cccDNA compared to mutant G-quadruplex structure: phage ELISA, WT vs MUT (G1748A)
# Source text: According to embodiments, methods of developing and designing the present at least one novel polypeptide comprising at least one antiviral sdAb are provided. In some embodiments, the methods comprise accessing a fully synthetic phage-display library that codes for 3-billion sdAbs clones, enabling efficient selection of in vitro humanized antibodies against virtually any antigen. Advantageously, no animals or immunization are required, allowing the selection of sdAbs that can target unprocessed G-quadruplex, thereby overcoming conventional techniques of injecting animals to raise antibodies (such techniques known to alter antigen structures).
# Having regard to FIG. 4B and Table 1 herein, the at least nine polypeptides having at least one sdAb are referred to as sdAbs 1, 4, 5, 6, 7, 8, 9, 10, and 11 and comprise an amino acid sequence represented as SEQ ID NOs: 9, 10, 11, 12, 13, 14, 15, 16, and 17, respectively.
# [4] = tested on: NTCP-HUH7 cells; test: localization and entry into target cells (staining, microscopy); assay type: cell-based
# Source text: The foregoing one or more modifications of the at least one polypeptide sdAb10 result in antiviral efficacy. […] Alternatively, the second and third rows shown in FIG. 7 provide that both polypeptides modified to include a cell penetrating peptide coding sequence entered the target cells (i.e. the nuclei and cytoplasm being visualized Hoescht stain and by fluorescently labelled anti-vinculin antibodies, respectively).
# [5] = tested on: HBV surface antigen (HBsAg); test: HBsAg levels following exposure to the polypeptide; settings: increased concentration from 50 μg/mL to 100 μg/mL
# Procedure: Having regard to FIG. 5A, expression methods using a bacterial expression system (SDS-PAGE) yielded ˜3 mg of pure sdAbs from 1 L bacterial culture, where lane 1 represents the standard molecular weight marker and elution fractions are shown in lanes 2-6, indicating the presence of at least one polypeptides having at least one sdAb (between 18.4 kDa and 14.4 kDa markers). […] The foregoing confirms that the at least one polypeptide comprise at least one antiviral sdAb.
# [6] = tested on: HBV cccDNA; test: pulldown assay with Hirt-extracted cccDNA from explanted HBV infected liver; assay type: binding; settings: for interaction with cccDNA: pulldown, cccDNA from explanted HBV infected liver; for replicates that picked up cccDNA: three replicates, nested PCR detection
# Procedure: In this Example 1, binding studies for at least one of the presently designed polypeptides having at least one sdAb with HBV pre-core G-quadruplex were performed using patient derived samples. For example, two of the presently developed sdAbs, namely sdAb #8 (NB01) and sdAb #1 (NB07), were produced via E. coli expression system and purified via nickel bead affinity chromatography, then size exclusion chromatography (as described in more detail herein). Pulldown assays using Hirt-extracted cccDNA from explanted liver tissue (i.e. liver transplanted secondary to HCC from HBV) were performed.
# Having regard to FIG. 8B, results are provided from the pulldown study using sdAbs-bound to magnetic nickel beads with Hirt-extracted, T5 exonuclease-digested cccDNA from an explanted HBV infected liver. Beads were incubated with the corresponding sdAbs comprising, in this Example, the presently developed sdAb8 and sdAb1, washed, and incubated with cccDNA. Excess cccDNA was removed (“xsDNA” lanes), followed by 4 washing steps (“4th Wash” lanes). The sdAbs were eluted and cccDNA was detected through nested PCR (“Elution” lanes). The first lane is the DNA marker highlighting the 150 bp fragment and the next two lanes represent the “sdAb only” elutions (sdAb8 and sdAb1). Subsequent sets of 3 represent the excess cccDNA (“xs”), last washes (“W”) and elutions (“E”) from the corresponding tubes. The last three lanes represent the PCR controls, with negatives from the direct (D) and nested (N) rounds.
# [7] = tested on: HBV pre-core G-quadruplex; test: MST binding study with HBV pre-core G-quadruplex
# Procedure: In this Example, binding studies for at least one of the presently designed polypeptides having at least one sdAb (e.g. sdAb10M and sdAb1) with HBV pre-core G-quadruplex were performed.
molecule,measurement,setting,value
"CC(C)OC(=O)OCOP(=O)(CO[C@H](C)Cn1cnc2c(N)ncnc21)OCOC(=O)OC(C)C.O=C(O)/C=C/C(=O)O [TDF, Tenofovir Disoproxil Fumurate, reference compound]",decrease in supernatant HBV DNA,[1],2 log
same,HBeAg levels,[2],did not significantly decrease
"sdAb 11: single domain antibody, amino acid sequence SEQ ID NO: 17 (protein, Single-Domain Antibody 11) VHH: MAEVQLQASGGGFVQPGGSLRLSCAASGFTSESTSMGWFRQAPGKEREFVSAISRWESTEEYYADSVKGRFTISRDNSKNTVYLQMNSLRAEDTATYYCAYRMHWGGRWRWNYWGQGTQVTVSS",affinity for wild-type G-quadruplex structure of HBV cccDNA compared to mutant G-quadruplex structure,[3],higher affinity for the wild-type G-quadruplex structure
"sdAb10-1: sdAb10 modified with CPP, NTCP-recognition and NLS sequences; full sequence SEQ ID NO: 19 (protein, Single-Domain Antibody 10-01) VHH: GRKKRRQRRRPPQGGGGSMAEVQLQASGGGFVQPGGSLRLSCAASGRTSKITSMGWFRQAPGKEREFVSAISWSNGLTNYYADSVKGRFTISRDNSKNTVYLQMNSLRAEDTATYYCASKIHTKPKWYWGQGTQVTVSSGGGGSNPLGFFPGGGGSDHQLDGGGGSPKKKRKVSSFLRNHHHHHH",entry into target cells,[4],enter the cell; also recorded: localize and enter the target hepatocyte cells
"sdAb 4: single domain antibody, amino acid sequence SEQ ID NO: 10 (protein, Single-Domain Antibody 4) VHH: MAEVQLQASGGGFVZPGGSLRLSCAASGRTSKWYSMGWFRQAPGKEREFVSAISYRQNIRAYYADSVKGRFTISRDNSKNTVYLQMNSLRAEDTATYYCAATHSYLFKFPTHFPQPQDYWGQGTQVTVSS",affinity for wild-type G-quadruplex structure of HBV cccDNA compared to mutant G-quadruplex structure,[3],higher affinity for the wild-type G-quadruplex structure
"sdAb10: single domain antibody, amino acid sequence SEQ ID NO: 16 (protein, Single-Domain Antibody 10) VHH: MAEVQLQASGGGFVQPGGSLRLSCAASGRTSKITSMGWFRQAPGKEREFVSAISWSNGLTNYYADSVKGRFTISRDNSKNTVYLQMNSLRAEDTATYYCASKIHTKPKWYWGQGTQVTVSS",HBsAg levels,[5],dose-dependent decrease in HBsAg levels
same,affinity for wild-type G-quadruplex structure of HBV cccDNA compared to mutant G-quadruplex structure,[3],higher affinity for the wild-type G-quadruplex structure
"sdAb8: single domain antibody, amino acid sequence SEQ ID NO: 14 (protein, Single-Domain Antibody 8) VHH: MAEVQLQASGGGFVQPGGSLRLSCAASGTTSGQTAMGWFRQAPGKEREFVSAISGHHTPRAYYADSVKGRFTISRDNSKNTVYLQMNSLRAEDTATYYCAWIRRKPQSWYWGQGTQVTVSS",interaction with cccDNA,[6],interacts with HBV cccDNA
same,replicates that picked up cccDNA,[6],two of the three replicates
same,affinity for wild-type G-quadruplex structure of HBV cccDNA compared to mutant G-quadruplex structure,[3],higher affinity for the wild-type G-quadruplex structure
same,entry into target cells,[4]; listed as sdAb08,do not enter the cells; also recorded: failed to enter target cells
"sdAb 6: single domain antibody, amino acid sequence SEQ ID NO: 12 (protein, Single-Domain Antibody 6) VHH: MAEVQLQASGGGFVQPGGSLRLSCAASGTGFRHTAMGWFRQAPGKEREFVSAISGHASKQAYYADSVKGRFTISRDNSKNTVYLQMNSLRAEDTATYYCAFRRAEKIYGHPMAPQKLWYWGQGTQVTVSS",affinity for wild-type G-quadruplex structure of HBV cccDNA compared to mutant G-quadruplex structure,[3],higher affinity for the wild-type G-quadruplex structure
"sdAb 5: single domain antibody, amino acid sequence SEQ ID NO: 11 (protein, Single-Domain Antibody 5) VHH: MAEVQLQASGGGFVZPGGSLRLSCAASGRTSYHTNMGWFRQAPGKEREFVSAISSSPNAATYYADSVKGRFTISRDNSKNTVYLQMNSLRAEDTATYYCARTKYGRVMGHMWYWGQGTQVTVSS",affinity for wild-type G-quadruplex structure of HBV cccDNA compared to mutant G-quadruplex structure,[3],higher affinity for the wild-type G-quadruplex structure
"sdAb10-2: sdAb10 modified with CPP, NTCP-recognition and NLS sequences; full sequence SEQ ID NO: 20 (protein, Single-Domain Antibody 10-02) VHH: MAEVQLQASGGGFVQPGGSLRLSCAASGRTSKITSMGWFRQAPGKEREFVSAISWSNGLTNYYADSVKGRFTISRDNSKNTVYLQMNSLRAEDTATYYCASKIHTKPKWYWGQGTQVTVSSGGGGSGRKKRRQRRRPPQGGGGSNPLGFFPGGGGSDHQLDGGGGSPKKKRKVSSFLRNHHHHHH",decrease in supernatant HBV DNA,[1],0.5 log
same,HBeAg levels,[2],significantly decreased
same,entry into target cells,[4],enter the cell; also recorded: localize and enter the target hepatocyte cells
"sdAb 7: single domain antibody, amino acid sequence SEQ ID NO: 13 (protein, Single-Domain Antibody 7) VHH: MAEVQLQASGGGFVQPGGSLRLSCAASGRTYRGETMGWFRQAPGKEREFVSAISWGWSNRAYYADSVKGRFTISRDNSKNTVYLQMNSLRAEDTATYYCASRHMRRAPWSGPGMSYWGQGTQVTVSS",affinity for wild-type G-quadruplex structure of HBV cccDNA compared to mutant G-quadruplex structure,[3],higher affinity for the wild-type G-quadruplex structure
"sdAb1: single domain antibody, amino acid sequence SEQ ID NO: 9; used as negative control (poor binder) (protein, Single-Domain Antibody 1) VHH: MAEVQLQASGGGFVQPGGSLRLSCAASGRTYRHSGMGWFRQAPGKEREFVSAISDDHNMESYYADSVKGRFTISRDNSKNTVYLQMNSLRAEDTATYYCAMTKWHGPGGPHWYWGQGTQVTVSS",interaction with cccDNA,[6],did not interact with cccDNA
same,replicates that picked up cccDNA,[6],none of the replicates
same,interaction with pre-core G-quadruplex of cccDNA,[3]; FIG. 4,only weakly interacted with the G-quadruplex
same,affinity for wild-type G-quadruplex structure of HBV cccDNA compared to mutant G-quadruplex structure,[3],higher affinity for the wild-type G-quadruplex structure
same,interaction with HBV pre-core G-quadruplex,[7],did not interact with HBV pre-core G-quadruplex
"sdAb 9: single domain antibody, amino acid sequence SEQ ID NO: 15 (protein, Single-Domain Antibody 9) VHH: MAEVQLQASGGGFVQPGGSLRLSCAASGRTSGHYSMGWFRQAPGKEREFVSAISGRGNSLSYYADSVKGRFTISRDNSKNTVYLQMNSLRAEDTATYYCAWWHRDSHPQSGKHMRYWGQGTQVTVSS",affinity for wild-type G-quadruplex structure of HBV cccDNA compared to mutant G-quadruplex structure,[3],higher affinity for the wild-type G-quadruplex structure
